Experimental data reported in the supplement of paper PMC9112550, “Optimization of the antimicrobial peptide Bac7 by deep mutational scanning” (BMC Biology, 2022).

Test system: Escherichia coli TOP10
Assay: shrunken log2 fold change of peptide-encoding DNA abundance (4.5 h post-induction vs induction); higher = less antimicrobial activity (less host growth inhibition)
Conditions: time post-induction: 4.5 h; library: site-saturation at positions 5, 18, 19, 20
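Also: peptides expressed intracellularly from a pBAD plasmid library in pooled LB shake-flask culture, induced with 0.3% L-arabinose, DNA abundance read by NGS, three biological replicates, DESeq2 with apeglm shrinkage.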

Sequence | shrunken log2 fold change
RRIRPRPPRLPRPRPRPHVSPRP | 0.00841
RRIRCRPPRLPRPRPRPEWSPRP | 0.144
RRIRPRPPRLPRPRPRPGIHPRP | -0.137
RRIRSRPPRLPRPRPRPRCEPRP | 0.152
RRIRKRPPRLPRPRPRPIYSPRP | -0.41
RRIRCRPPRLPRPRPRPVTCPRP | -0.121
RRIRPRPPRLPRPRPRPLQGPRP | 0.13
RRIRKRPPRLPRPRPRPENVPRP | -0.00931
RRIRFRPPRLPRPRPRPNPLPRP | 0.0861
RRIRARPPRLPRPRPRPCMLPRP | -0.0396
RRIRYRPPRLPRPRPRPDSLPRP | -0.142
RRIRHRPPRLPRPRPRPPPQPRP | 0.844
RRIRGRPPRLPRPRPRPMFSPRP | 0.147
RRIRSRPPRLPRPRPRPYPHPRP | -0.227
RRIRCRPPRLPRPRPRPACCPRP | 0.306
RRIRWRPPRLPRPRPRPVALPRP | 0.459
RRIRCRPPRLPRPRPRPWLEPRP | 0.117
RRIRPRPPRLPRPRPRPTYSPRP | -0.104
RRIRHRPPRLPRPRPRPIRQPRP | 0.0104
RRIRLRPPRLPRPRPRPDSEPRP | 0.482

Sequence | shrunken log2 fold change
RRIRWRPPRLPRPRPRPHDDPRP | 0.0487
RRIRDRPPRLPRPRPRPRCGPRP | 0.565
RRIRCRPPRLPRPRPRPYPSPRP | -0.0149
RRIRDRPPRLPRPRPRPDKKPRP | 0.0252
RRIRLRPPRLPRPRPRPMFIPRP | -0.734
RRIRCRPPRLPRPRPRPLHRPRP | 0.06
RRIRLRPPRLPRPRPRPICYPRP | -0.284
RRIRMRPPRLPRPRPRPLRVPRP | 1.14
RRIRWRPPRLPRPRPRPKKEPRP | -0.224
RRIRDRPPRLPRPRPRPHPNPRP | -0.662
RRIRNRPPRLPRPRPRPGYAPRP | -0.0974
RRIRARPPRLPRPRPRPHVEPRP | 0.147
RRIRRRPPRLPRPRPRPMWQPRP | 0.381
RRIRKRPPRLPRPRPRPIRVPRP | -0.0018
RRIRKRPPRLPRPRPRPKDTPRP | 0.26
RRIRSRPPRLPRPRPRPIKGPRP | -0.00753
RRIRWRPPRLPRPRPRPCMVPRP | -0.155
RRIRHRPPRLPRPRPRPFSIPRP | -0.392
RRIRKRPPRLPRPRPRPAAMPRP | 0.707
RRIRPRPPRLPRPRPRPCINPRP | -0.726

Sequence | shrunken log2 fold change
RRIRDRPPRLPRPRPRPVPNPRP | -0.0123
RRIRARPPRLPRPRPRPLMRPRP | 1.45
RRIRTRPPRLPRPRPRPTMFPRP | -0.148
RRIRQRPPRLPRPRPRPDFKPRP | -0.229
RRIRSRPPRLPRPRPRPMIPPRP | -0.109
RRIRPRPPRLPRPRPRPPADPRP | 0.593
RRIRSRPPRLPRPRPRPNNYPRP | -0.597
RRIRFRPPRLPRPRPRPTFIPRP | -0.44
RRIRDRPPRLPRPRPRPWNTPRP | -0.166
RRIRQRPPRLPRPRPRPWYDPRP | -0.138
RRIRQRPPRLPRPRPRPAWSPRP | 0.183
RRIRFRPPRLPRPRPRPRKGPRP | 0.447
RRIRWRPPRLPRPRPRPKDLPRP | -0.0295
RRIRFRPPRLPRPRPRPAHNPRP | -0.016
RRIRSRPPRLPRPRPRPRHQPRP | -0.119
RRIRFRPPRLPRPRPRPSHYPRP | -0.762
RRIRMRPPRLPRPRPRPYQNPRP | 0.0826
RRIRSRPPRLPRPRPRPQEKPRP | -0.393
RRIRHRPPRLPRPRPRPVHDPRP | 0.079
RRIRIRPPRLPRPRPRPGILPRP | -0.128
